T1: POU4F1-s (UniProt Q01851 85-419)
T1 sequence: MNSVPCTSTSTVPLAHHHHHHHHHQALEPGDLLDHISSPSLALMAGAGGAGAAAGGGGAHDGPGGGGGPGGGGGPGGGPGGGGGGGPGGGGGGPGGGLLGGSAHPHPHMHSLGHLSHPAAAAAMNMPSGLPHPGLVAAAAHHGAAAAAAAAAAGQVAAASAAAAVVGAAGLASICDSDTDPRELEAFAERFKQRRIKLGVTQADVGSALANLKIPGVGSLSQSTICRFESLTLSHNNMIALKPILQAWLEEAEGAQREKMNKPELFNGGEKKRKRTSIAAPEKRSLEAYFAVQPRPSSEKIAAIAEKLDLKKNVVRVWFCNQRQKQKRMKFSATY

T2: POU4F2-l (UniProt Q12837 1-409)
T2 sequence: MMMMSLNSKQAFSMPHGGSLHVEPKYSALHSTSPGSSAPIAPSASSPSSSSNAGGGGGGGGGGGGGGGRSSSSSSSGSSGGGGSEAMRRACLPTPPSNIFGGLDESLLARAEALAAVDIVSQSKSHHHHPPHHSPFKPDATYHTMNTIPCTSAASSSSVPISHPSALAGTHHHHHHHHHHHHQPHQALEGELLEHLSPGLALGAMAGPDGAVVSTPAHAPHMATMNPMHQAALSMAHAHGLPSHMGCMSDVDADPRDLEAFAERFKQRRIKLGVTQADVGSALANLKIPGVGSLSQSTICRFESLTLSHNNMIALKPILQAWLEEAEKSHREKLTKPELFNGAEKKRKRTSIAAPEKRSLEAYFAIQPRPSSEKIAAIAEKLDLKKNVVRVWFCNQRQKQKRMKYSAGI

T3: POU4F2-s (UniProt Q12837 98-409)
T3 sequence: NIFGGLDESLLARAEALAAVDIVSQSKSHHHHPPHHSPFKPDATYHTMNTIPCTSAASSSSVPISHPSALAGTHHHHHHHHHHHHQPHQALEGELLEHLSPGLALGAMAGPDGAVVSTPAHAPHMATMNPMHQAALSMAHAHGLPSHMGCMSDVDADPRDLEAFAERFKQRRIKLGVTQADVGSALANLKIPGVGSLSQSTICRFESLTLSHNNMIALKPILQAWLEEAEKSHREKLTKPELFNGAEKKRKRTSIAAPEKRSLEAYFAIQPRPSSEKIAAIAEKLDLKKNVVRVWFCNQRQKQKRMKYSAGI

T4: POU4F3 (UniProt Q15319 1-338)
T4 sequence: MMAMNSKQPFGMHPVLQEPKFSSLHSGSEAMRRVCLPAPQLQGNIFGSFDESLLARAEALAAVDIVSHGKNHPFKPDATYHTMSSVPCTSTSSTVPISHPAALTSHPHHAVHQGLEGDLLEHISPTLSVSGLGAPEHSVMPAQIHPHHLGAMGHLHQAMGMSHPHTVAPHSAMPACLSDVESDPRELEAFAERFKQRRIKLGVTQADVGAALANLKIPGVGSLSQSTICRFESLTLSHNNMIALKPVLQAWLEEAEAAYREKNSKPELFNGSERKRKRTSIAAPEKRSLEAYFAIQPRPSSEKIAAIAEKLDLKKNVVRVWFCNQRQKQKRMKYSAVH

T5: POU4F1-l (UniProt Q01851 1-419)
T5 sequence: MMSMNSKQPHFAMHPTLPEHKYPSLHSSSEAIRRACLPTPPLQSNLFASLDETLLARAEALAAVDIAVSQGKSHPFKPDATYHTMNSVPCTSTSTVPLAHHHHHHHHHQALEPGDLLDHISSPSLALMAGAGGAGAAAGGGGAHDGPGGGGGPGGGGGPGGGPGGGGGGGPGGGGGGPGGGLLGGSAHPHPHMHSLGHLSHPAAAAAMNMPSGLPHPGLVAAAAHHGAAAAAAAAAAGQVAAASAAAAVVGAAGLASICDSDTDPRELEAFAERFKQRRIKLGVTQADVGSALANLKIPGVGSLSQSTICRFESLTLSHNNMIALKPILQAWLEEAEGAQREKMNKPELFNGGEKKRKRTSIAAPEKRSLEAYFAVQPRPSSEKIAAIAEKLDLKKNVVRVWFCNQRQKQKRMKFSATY

B1: Probe 2 (Site 2) (dsDNA)
DNA 1: AGGGTTTTAATTAACTATTCAGTG
DNA 2: CACTGAATAGTTAATTAAAACCCT
B2: Probe 1m (dsDNA)
DNA 1: AGCTCACGGCCTGAGTTAACAAAG
DNA 2: CTTTGTTAACTCAGGCCGTGAGCT
B3: Probe 2m (dsDNA)
DNA 1: AGGGTTTTAAGGCCCTATTCAGTG
DNA 2: CACTGAATAGGGCCTTAAAACCCT
B4: Probe 6m (dsDNA)
DNA 1: AGAAATCCTTAGGCCTTGACTTTG
DNA 2: CAAAGTCAAGGCCTAAGGATTTCT

Assays:
[1] = molecular target: T1, POU4F1-s; assay: competition EMSA; conditions: unlabeled, vs 32P-Probe 2; strongest competitor; 10 mM Tris-Cl pH 7.9, 100 mM KCl, 5 mM MgCl2, 1 mM EDTA, 1 mM DTT, 0.5 mM PMSF, 5% glycerol, 1 ug poly(dI-dC), on ice 30 min; 5% polyacrylamide gel
[2] = molecular target: T2, POU4F2-l; assay: EMSA; 10 mM Tris-Cl pH 7.9, 100 mM KCl, 5 mM MgCl2, 1 mM EDTA, 1 mM DTT, 0.5 mM PMSF, 5% glycerol, 1 ug poly(dI-dC), on ice 30 min; 5% polyacrylamide gel; conditions: protein: ivt
[3] = molecular target: T3, POU4F2-s; assay: as above; conditions: protein: ivt
[4] = molecular target: T4, POU4F3; assay: as above; conditions: protein: ivt
[5] = molecular target: T1, POU4F1-s; assay: as above; conditions: protein: ivt; label: 32P fill-in; overhangs filled in by Klenow
[6] = molecular target: T5, POU4F1-l; assay: as above; conditions: protein: ivt
[7] = overhangs filled in by Klenow when labeled
[8] = label: 32P fill-in, overhangs filled in by Klenow

Molecule	binding signal (relative binding strength) [1]	binding result [2, 7]	binding result [3, 7]	binding result [4, 7]	binding result [2, 8]	binding result [3, 8]	binding result [5]	binding result [6, 8]	binding result [4, 8]	binding result [6, 7]
POU4F1 consensus site competitor	1000	–	–	–	–	–	–	–	–	–
B1	–	binds	binds	binds	–	–	–	–	–	–
B2	–	–	–	–	no binding	no binding	no binding	no binding	no binding	–
B3	–	no binding	no binding	no binding	–	–	–	–	–	no binding
B4	–	–	–	–	no binding	no binding	no binding	no binding	no binding	–

— paper PMC3692409, “RIT2, a neuron-specific small guanosine triphosphatase, is expressed in retinal neuronal cells and its promoter is modulated by the POU4 transcription factors”
